Experimental data reported in the supplement of paper PMC10567573.

B1: ZBED1 (parent)
chain: EQVFSLGDGVSGGFFGIRDSSFL
B2: PLAGL1 (parent)
chain: TKEKKHQCDHCERCFYTRKDVRRH

Variants of: B1
Experiment: protein stability index of a GFP-peptide fusion (GPS, HEK-293T) (PSI 1-6); higher = more stable
Conditions: c terminus: native
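Note: lentivirally expressed fusions sorted by FACS into six bins by GFP to DsRed ratio, PSI derived from sequencing read proportions per bin multiplied by bin number.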

Variant | protein stability index
KQVFSLGDGVSGGFFGIRDSSFL [E1K] | 2.64
RQVFSLGDGVSGGFFGIRDSSFL [E1R] | 2.06
YQVFSLGDGVSGGFFGIRDSSFL [E1Y] | 3.12
SQVFSLGDGVSGGFFGIRDSSFL [E1S] | 2.83
CQVFSLGDGVSGGFFGIRDSSFL [E1C] | 1.16
QQVFSLGDGVSGGFFGIRDSSFL [E1Q] | 2.77
LQVFSLGDGVSGGFFGIRDSSFL [E1L] | 2.3
VQVFSLGDGVSGGFFGIRDSSFL [E1V] | 3.14
DQVFSLGDGVSGGFFGIRDSSFL [E1D] | 3.69
TQVFSLGDGVSGGFFGIRDSSFL [E1T] | 2.35
MQVFSLGDGVSGGFFGIRDSSFL [E1M] | 1.89
GQVFSLGDGVSGGFFGIRDSSFL [E1G] | 2.45
NQVFSLGDGVSGGFFGIRDSSFL [E1N] | 2.99
AQVFSLGDGVSGGFFGIRDSSFL [E1A] | 2.52
PQVFSLGDGVSGGFFGIRDSSFL [E1P] | 2.64
FQVFSLGDGVSGGFFGIRDSSFL [E1F] | 2.19
WQVFSLGDGVSGGFFGIRDSSFL [E1W] | 1.62
HQVFSLGDGVSGGFFGIRDSSFL [E1H] | 2.45
EQVCSLGDGVSGGFFGIRDSSFL [F4C] | 3.18
EQVASLGDGVSGGFFGIRDSSFL [F4A] | 4.22
EQVNSLGDGVSGGFFGIRDSSFL [F4N] | 4.11
EQVDSLGDGVSGGFFGIRDSSFL [F4D] | 4.38
EQVISLGDGVSGGFFGIRDSSFL [F4I] | 3.63

Variant | protein stability index
EQVLSLGDGVSGGFFGIRDSSFL [F4L] | 3.36
EQVGSLGDGVSGGFFGIRDSSFL [F4G] | 4.16
EQVHSLGDGVSGGFFGIRDSSFL [F4H] | 4.16
EQVMSLGDGVSGGFFGIRDSSFL [F4M] | 3.63
EQVESLGDGVSGGFFGIRDSSFL [F4E] | 4.55
EQVPSLGDGVSGGFFGIRDSSFL [F4P] | 4.11
EQVKSLGDGVSGGFFGIRDSSFL [F4K] | 4.06
EQKFSLGDGVSGGFFGIRDSSFL [V3K] | 3.7
EQNFSLGDGVSGGFFGIRDSSFL [V3N] | 3.82
EQTFSLGDGVSGGFFGIRDSSFL [V3T] | 3.6
EQGFSLGDGVSGGFFGIRDSSFL [V3G] | 4.03
EQMFSLGDGVSGGFFGIRDSSFL [V3M] | 3.15
EQFFSLGDGVSGGFFGIRDSSFL [V3F] | 2.52
EQYFSLGDGVSGGFFGIRDSSFL [V3Y] | 3.01
EQEFSLGDGVSGGFFGIRDSSFL [V3E] | 4.17
EQDFSLGDGVSGGFFGIRDSSFL [V3D] | 4.19
EQRFSLGDGVSGGFFGIRDSSFL [V3R] | 3.55
EQIFSLGDGVSGGFFGIRDSSFL [V3I] | 2.9
EQSFSLGDGVSGGFFGIRDSSFL [V3S] | 3.63
EQWFSLGDGVSGGFFGIRDSSFL [V3W] | 2.55
EQAFSLGDGVSGGFFGIRDSSFL [V3A] | 4.03
EQQFSLGDGVSGGFFGIRDSSFL [V3Q] | 4.23
EQHFSLGDGVSGGFFGIRDSSFL [V3H] | 3.99

Variant | protein stability index
EQPFSLGDGVSGGFFGIRDSSFL [V3P] | 4.06
EQCFSLGDGVSGGFFGIRDSSFL [V3C] | 2.92
EQLFSLGDGVSGGFFGIRDSSFL [V3L] | 2.91
EAVFSLGDGVSGGFFGIRDSSFL [Q2A] | 2.44
ENVFSLGDGVSGGFFGIRDSSFL [Q2N] | 2.98
ECVFSLGDGVSGGFFGIRDSSFL [Q2C] | 1.96
EKVFSLGDGVSGGFFGIRDSSFL [Q2K] | 2.74
EDVFSLGDGVSGGFFGIRDSSFL [Q2D] | 3.7
ESVFSLGDGVSGGFFGIRDSSFL [Q2S] | 3.44
EFVFSLGDGVSGGFFGIRDSSFL [Q2F] | 1.72
ETVFSLGDGVSGGFFGIRDSSFL [Q2T] | 3.04
EHVFSLGDGVSGGFFGIRDSSFL [Q2H] | 3.22
EIVFSLGDGVSGGFFGIRDSSFL [Q2I] | 1.84
ERVFSLGDGVSGGFFGIRDSSFL [Q2R] | 3
EPVFSLGDGVSGGFFGIRDSSFL [Q2P] | 3.46
EEVFSLGDGVSGGFFGIRDSSFL [Q2E] | 3.88
EGVFSLGDGVSGGFFGIRDSSFL [Q2G] | 3.05
EVVFSLGDGVSGGFFGIRDSSFL [Q2V] | 2.17
ELVFSLGDGVSGGFFGIRDSSFL [Q2L] | 1.8
EYVFSLGDGVSGGFFGIRDSSFL [Q2Y] | 2.43
EMVFSLGDGVSGGFFGIRDSSFL [Q2M] | 1.65
EWVFSLGDGVSGGFFGIRDSSFL [Q2W] | 2.03

Variants of: B2
Experiment: as above
Conditions: c terminus: a fixed tail appended

Variant | protein stability index
TKEKKHQCDHCERCFYTRKLVRRH [D20L] | 3.14
TKEKKHQCDHCERCFYTRKMVRRH [D20M] | 3.44
TKEKKHQCDHCERCFYTRKEVRRH [D20E] | 3.96
TKEKKHQCDHCERCFYTRKIVRRH [D20I] | 2.65
TKEKKHQCDHCERCFYTRKFVRRH [D20F] | 3.14
TKEKKHQCDHCERCFYTRKGVRRH [D20G] | 3.21
TKEKKHQCDHCERCFYTRKPVRRH [D20P] | 3.1
TKEKKHQCDHCERCFYTRKKVRRH [D20K] | 3.29
TKEKKHQCDHCERCFYTRKWVRRH [D20W] | 3.03
TKEKKHQCDHCERCFYTRKCVRRH [D20C] | 3.02
TKEKKHQCDHCERCFYTRKYVRRH [D20Y] | 3.28
TKEKKHQCDHCERCFYTRKSVRRH [D20S] | 3.22
TKEKKHQCDHCERCFYTRKVVRRH [D20V] | 3.71
TKEKKHQCDHCERCFYTRKTVRRH [D20T] | 2.96
TKEKKHQCDHCERCFYTRKNVRRH [D20N] | 3.37
TKEKKHQCDHCERCFYTRKAVRRH [D20A] | 3.61
TKEKKHQCDHCERCFYTRKRVRRH [D20R] | 3.84
TKEKKHQCDHCERCFYTRKHVRRH [D20H] | 3.43
TKEKKHQCDHCERCFYTRKQVRRH [D20Q] | 3.43
TKEKKHQCDHCERCFYTVKDVRRH [R18V] | 3.27
TKEKKHQCDHCERCFYTTKDVRRH [R18T] | 3.29
TKEKKHQCDHCERCFYTQKDVRRH [R18Q] | 3.38
TKEKKHQCDHCERCFYTNKDVRRH [R18N] | 3.58
TKEKKHQCDHCERCFYTWKDVRRH [R18W] | 3.27
TKEKKHQCDHCERCFYTSKDVRRH [R18S] | 3.5
TKEKKHQCDHCERCFYTYKDVRRH [R18Y] | 3.2
TKEKKHQCDHCERCFYTPKDVRRH [R18P] | 3.13
